Test results: patent US8623997B2, “Variant Hhip1 protein and methods and uses thereof” (Curis, Inc., priority 2008, dated 2014)

How the values were obtained:
Ptch1 = assay: FACS assay of Shh649 binding to Ptch1 expressing 293 cells and its competition; parameters: species or system human
Method: (§1) Shh649 (1 nM) preincubated with indicated proteins was bound to Ptch1 expressing cells, washed and analyzed by FACS. The average mean Shh649 fluorescence intensity (MFI) of two independent dilution series was plotted versus inhibitor concentration, with error bars denoting standard deviations. […] Assays were carried out using octylated Ihh wildtype and T154I proteins. Concentration dependent relative luciferase units (RLU) are plotted as the average of four independent dilution series±standard deviation and normalized to the maximal Ihh WT stimulation on each plate as 100%. […] The data is representative of three independent experiments.
Shh is in the same orientation as in the Hhip-Shh complex in Panel A. Zn^2+ and Ca^2+ cations are shown. […] Surface representation of Shh with residues within 4.5 Å of Hhip (shaded gray) and Cdon (hatched areas). Area within dotted boarder indicates the boundaries of the Cdon footprint, which overlaps the Hhip binding surface. […] Shh histidine residues are shown as sticks with nitrogen atoms shaded dark. The Hhip L2 loop is shown in transparent surface and Zn^2+ cation is shown. Histidine 35 is not shown since the ordered portion of the Shh structure begins at L40. […] The spectral region of the histidine side chains is shown. […] The average mean Shh649 fluorescence intensity (MFI) of two independent dilution series was plotted versus protein concentration, with error bars denoting standard deviations. Ctrl refers to the His-6 (SEQ ID NO: 87) tagged HGF β protein. […] Shh649 (0.33 nM) was preincubated with 56 nM (170-fold excess) of Hhipβ12 wildtype or L2 mutant proteins, 5E1 or controls then bound to Ptch1 cells (black) or 293 cells (gray), washed and analyzed by FACS. Shh649 binding to Ptch1 cells in the absence of inhibitors was normalized to 100% and the data expressed as a percentage of this signal (average of two independent duplicates with standard deviations). Ctrl and CtrlFc refer to HGF β and the IgG1 isotype control Trastuzumab, respectively. The data is representative of at least three independent experiments.
(§2) Shh649, conjugated to Dylight 649 (Pierce) at its C-terminus (vide supra), was incubated at 0.33 or 1 nM for 1 h on ice with various Hhip or control proteins prior to incubation with HEK-293 cells (293) or 293 cells expressing full length human Patched-1 (Ptch1-293 clone 10) (Carpenter D. et al. (1998) Proc. Natl. Acad. Sci. USA 95:13630-13634) in FACS buffer (3% FBS in PBS) for 1 h on ice. After washing 3 times in FACS buffer, live cells (sorted by propidium iodide exclusion) were analyzed by flow cytometry in the APC channel using a FACSCalibur (BD Biosciences). Control proteins included His6-Shh, His6-Ihh, HGF β-His639, Trastuzumab (Genentech, Inc.) as a human IgG1 isotype control for Hhip1β12-Fc, and mIgG1 (Molecular Probes Z25105) as a murine Mab control for anti-Shh 5E1 Mab34.

Hh signaling = assay: S12 Gli luciferase assay, activation of Hh signaling; type: cell-based, murine; conditions: octylated Ihh wildtype and T154I proteins
Method: as §1
Briefly, S12 cells, which are 10T1/2 fibroblasts stably transfected with 8× Gli-binding sites fused to a luciferase reporter (Frank-Kamenetsky et al. (2002) J. Biol. 1:10), were plated at 10,000 cells/well of a white-walled clear bottomed 96-well plate (Costar 3610) for 48 hrs in regular growth medium (HG-DMEM, 10% FBS, 1% glutamine). After 24 h, the media was removed and Shh-producing HT29 cells at 20,000 cells/well were plated and the co-culture was grown in regular media. […] Gli-luciferase activity was measured using a HTS-Steady Lite luciferase detection kit (Perkin Elmer); multiple assays were carried out, each in triplicate. […]

biotinylated-ShhN-Cys = molecular target: T1, biotinylated-ShhN-Cys (Homo sapiens, UniProt Q15465); assay: Bio-layer interferometry (Octet) binding kinetics of Hhip1β12 variants to Shh; conditions: for Shh binding of Hhip1β12 mutants (in words): bio-layer interferometry, compared with WT Hhip1β12
T1 construct: ShhN-Cys (residues 24-197); His6 (N); made in house; host or cells: E. coli Rosetta 2
Method: The binding kinetics of the Hhip1β12 fragments as well as Hhip1β12 mutants were measured by bio-layer interferometry in the presence or absence of 10 mM EDTA on an Octet (Fortébio). Streptavidin high binding FA biosensors were loaded with biotinylated-ShhN-Cys in kinetic buffer (Fortébio). The loaded biosensors were washed and transferred to wells containing Hhip1β12 protein at concentrations of 1.2, 1.0, 0.8 and 0.6 μM in kinetic buffer. Hhip1β12 association and dissociation was measured for 30 and 20 min, respectively. Kinetic parameters (kon and koff) and affinities (KD) were calculated from a non-linear fit of the data based on a 1:1 binding model between Hhip1β12 and Shh using the Octet software. Multiple independent measurements were performed.
In order to assess the contribution of residues in the Hhip1 L1, L2 and L3 loops for binding to Shh, a series of single alanine Hipβ12 mutants were made using the QuickChange DNA mutagenesis kit (Stratagene) using the manufacturer's protocol, and their affinity for Shh was measured by bio-layer interferometry (as described in Example 2B). These mutations included Hhip1β12 mutants 1312A, E381A, M382A, D383A, D378A, T418A, Q420A, E380A, D387A and ΔL2.

Shh signaling = assay: Gli-luciferase co-culture signaling assay (S12 fibroblasts overlaid with Shh-producing HT29 cells); type: cell-based, murine S12 fibroblasts / human HT29 cells; conditions: for IC50: 24 hrs, read-out: IC50 inhibition of Shh signaling
Source text: Due to the lack of both N- and C-terminal lipid modifications of Shh and the absence of other cellular components, the in vitro assays may not fully recapitulate Hip-Shh interactions occurring in a cellular environment. Therefore, a co-culture assay consisting of murine S12 fibroblasts stably transfected with a Gli luciferase reporter gene and (Frank-Kamenetsky et al. (2002) J. Biol. 1:10) and human colorectal adenocarcinoma HT29 cells that secrete fully lipid-modified Shh (Yauch et al. (2008) Nature 455:406) was used to determine which extracellular domains of Hhip1β12 mediate inhibition of Shh signaling in mammalian cells.
Briefly, S12 cells, which are 10T1/2 fibroblasts stably transfected with 8× Gli-binding sites fused to a luciferase reporter (Frank-Kamenetsky et al. (2002) J. Biol. 1:10), were plated at 10,000 cells/well of a white-walled clear bottomed 96-well plate (Costar 3610) for […] in regular growth medium (HG-DMEM, 10% FBS, 1% glutamine). After 24 h, the media was removed and Shh-producing HT29 cells at 20,000 cells/well were plated and the co-culture was grown in regular media. After 24 h, the media was changed to 0.5% serum HG-DMEM±Hhip1β12 fragments and further incubated for 24 hrs to stimulate signaling. Gli-luciferase activity was measured using a HTS-Steady Lite luciferase detection kit (Perkin Elmer); multiple assays were carried out, each in triplicate. Data were fit to a 4-parameter sigmoidal equation, from which the IC50 was derived using Kaleidagraph (Synergy Software).

[1] = molecular target: T2, Shh649 binding to Hhip1β12 on 293 cells (Homo sapiens, UniProt Q15465); assay: FACS: Ptch1-independent recruitment of Shh649 to 293 cells by Hhip1β12; conditions: 520 nM
T2 construct: made in house; host or cells: Shh649: E. coli Rosetta 2; Hhip1β12: Tni insect cells; both added to HEK-293 cells
Source text: The critical residue for 5E1 binding, S177 shown marked with an asterisk (*), resides in the area of Shh that interacts with both Hhip and Ptch1. Numbering refers to human Shh (Fuse, N. et al. (1999) Proc. Natl. Acad. Sci. USA 96:10992-10999; Pepinsky R. B. et al. (2000) J. Biol. Chem. 275:10995-11001). […] Black bars show binding to Ptch1 cells for comparison. Data are the average mean fluorescence intensity and SDs of two independent (duplicate and triplicate) experiments normalized to Shh649 binding to Ptch1 cells in the absence of other proteins (“Ctrl”) in the same way as FIG. 15J. Shh649 and Hhip1β12 are present at 45- and 10-fold higher concentrations respectively than in FIG. 15J in order to detect the Ptch1-independent binding of Shh649 to Hhip1β12.
as §2, with “Control proteins included His6-Shh, His6-Ihh, HGF β-His639, Trastuzumab (Genentech, Inc.) as a human IgG1 isotype control for Hhip1β12-Fc, and mIgG1 (Molecular Probes Z25105) as a murine Mab control for anti-Shh 5E1 Mab34.” left out

[2] = 1:1 binding model, n.d stands for no binding detected

| Molecule | competition of Shh649 binding to Ptch1 cells (in words) (Ptch1) | EC50 (Hh signaling) [nM] | IC50 (Shh signaling; Gli-luciferase co-culture) [nM] | binding to 293 cells at high concentrations [1] | Shh binding of Hhip1β12 mutants (in words) (biotinylated-ShhN-Cys) | further results |
| --- | --- | --- | --- | --- | --- | --- |
| Ihh: human Indian Hedgehog, residues 29-202 | dose dependent manner | 16 |  |  |  |  |
| T154I: type A1 brachydactyly mutant Ihh T154I |  | 330 |  |  |  |  |
| Hhip1β12: β-propeller-EGF1-EGF2 construct (SEQ ID NO:12), residues 193-667 of SEQ ID NO:2, lacking putative Fz domain (protein, listed as Homo sapiens) SNYLDQMEEYDKVEEISRKHKHNCFCIQEVVSGLRQPVGALHSGDGSQRLFILEKEGYVKILTPEGEIFKEPYLDIHKLVQSGIKGGDERGLLSLAFHPNYKKNGKLYVSYTTNQERWAIGPHDHILRVVEYTVSRKNPHQVDLRTARVFLEVAELHRKHLGGQLLFGPDGFLYIILGDGMITLDDMEEMDGLSDFTGSVLRLDVDTDMCNVPYSIPRSNPHFNSTNQPPEVFAHGLHDPGRCAVDRHPTDININLTILCSDSNGKNRSSARILQIIKGKDYESEPSLLEFKPFSNGPLVGGFVYRGCQSERLYGSYVFGDRNGNFLTLQQSPVTKQWQEKPLCLGTSGSCRGYFSGHILGFGEDELGEVYILSSSKSMTQTHNGKLYKIVDPKRPLMPEECRATVQPAQTLTSECSRLCRNGYCTPTGKCCCSPGWEGDFCRTAKCEPACRHGGVCVRPNKCLCKKGYLGPQCE | inhibit Ptch1-specific Shh cell binding in a dose-dependent manner |  | 5 | bind nonspecifically to 293 cells |  | Kd (biotinylated-ShhN-Cys; [2]): 220 nM; koff × 10^−4 (biotinylated-ShhN-Cys; [2]): 9.4 × 10^−4 [s^−1]; kon × 10^3 (biotinylated-ShhN-Cys; [2]): 4.3 × 10^3 [M^−1 × s^−1] |
| Hhip1β12-Fc: Fc-tagged Hhip1β12 (protein, left off: a dimerising Fc or GST) SNYLDQMEEYDKVEEISRKHKHNCFCIQEVVSGLRQPVGALHSGDGSQRLFILEKEGYVKILTPEGEIFKEPYLDIHKLVQSGIKGGDERGLLSLAFHPNYKKNGKLYVSYTTNQERWAIGPHDHILRVVEYTVSRKNPHQVDLRTARVFLEVAELHRKHLGGQLLFGPDGFLYIILGDGMITLDDMEEMDGLSDFTGSVLRLDVDTDMCNVPYSIPRSNPHFNSTNQPPEVFAHGLHDPGRCAVDRHPTDININLTILCSDSNGKNRSSARILQIIKGKDYESEPSLLEFKPFSNGPLVGGFVYRGCQSERLYGSYVFGDRNGNFLTLQQSPVTKQWQEKPLCLGTSGSCRGYFSGHILGFGEDELGEVYILSSSKSMTQTHNGKLYKIVDPKRPLMPEECRATVQPAQTLTSECSRLCRNGYCTPTGKCCCSPGWEGDFCRTAKCEPACRHGGVCVRPNKCLCKKGYLGPQCE | inhibit Ptch1-specific Shh cell binding in a dose-dependent manner |  |  | bind nonspecifically to 293 cells |  |  |
| Hhip1ΔL2: Hhip1β12 mutant with deletion of the entire L2 loop (protein) SNYLDQMEEYDKVEEISRKHKHNCFCIQEVVSGLRQPVGALHSGDGSQRLFILEKEGYVKILTPEGEIFKEPYLDIHKLVQSGIKGGDERGLLSLAFHPNYKKNGKLYVSYTTNQERWAIGPHDHILRVVEYTVSRKNPHQVDLRTARVFLEVAELHRKHLGGQLLFGPDGFLYIILGDGMITTGSVLRLDVDTDMCNVPYSIPRSNPHFNSTNQPPEVFAHGLHDPGRCAVDRHPTDININLTILCSDSNGKNRSSARILQIIKGKDYESEPSLLEFKPFSNGPLVGGFVYRGCQSERLYGSYVFGDRNGNFLTLQQSPVTKQWQEKPLCLGTSGSCRGYFSGHILGFGEDELGEVYILSSSKSMTQTHNGKLYKIVDPKRPLMPEECRATVQPAQTLTSECSRLCRNGYCTPTGKCCCSPGWEGDFCRTAKCEPACRHGGVCVRPNKCLCKKGYLGPQCEHHHHHH | no inhibition |  |  |  | abrogated binding to Shh | inhibitory activity (in words) (Shh signaling; Gli-luciferase co-culture): no inhibitory activity |
| D383R: Hhip L2 mutant of Hhip1β12 with D383 changed to R (protein) MLKMLSFKLLLLAVALGFFEGDAKFGERNEGSGARRRRCLNGNPPKRLKRRDRRMMSQLELLSGGEMLCGGFYPRLSCCLRSDSPGLGRLENKIFSVTNNTECGKLLEEIKCALCSPHSQSLFHSPEREVLERDLVLPLLCKDYCKEFFYTCRGHIPGFLQTTADEFCFYYARKDGGLCFPDFPRKQVRGPASNYLDQMEEYDKVEEISRKHKHNCFCIQEVVSGLRQPVGALHSGDGSQRLFILEKEGYVKILTPEGEIFKEPYLDIHKLVQSGIKGGDERGLLSLAFHPNYKKNGKLYVSYTTNQERWAIGPHDHILRVVEYTVSRKNPHQVDLRTARVFLEVAELHRKHLGGQLLFGPDGFLYIILGDGMITLDDMEEMRGLSDFTGSVLRLDVDTDMCNVPYSIPRSNPHFNSTNQPPEVFAHGLHDPGRCAVDRHPTDININLTILCSDSNGKNRSSARILQIIKGKDYESEPSLLEFKPFSNGPLVGGFVYRGCQSERLYGSYVFGDRNGNFLTLQQSPVTKQWQEKPLCLGTSGSCRGYFSGHILGFGEDELGEVYILSSSKSMTQTHNGKLYKIVDPKRPLMPEECRATVQPAQTLTSECSRLCRNGYCTPTGKCCCSPGWEGDFCRTAKCEPACRHGGVCVRPNKCLCKKGYLGPQCEQVDRNIRRVTRAGILDQIIDMTSYLLDLTSYIV | no inhibition |  | 57 |  | inability | IC50 fold change versus wildtype Hipβ12 (Shh signaling; Gli-luciferase co-culture): ~13 fold; maximal inhibition (Shh signaling; at saturating conditions): ~50% |
